Values quoted from earlier work, collected in paper PMC3950513.

Target: MukB (Escherichia coli) (UniProt P22523)
UniProt P22523, sequence (P22523 whole entry): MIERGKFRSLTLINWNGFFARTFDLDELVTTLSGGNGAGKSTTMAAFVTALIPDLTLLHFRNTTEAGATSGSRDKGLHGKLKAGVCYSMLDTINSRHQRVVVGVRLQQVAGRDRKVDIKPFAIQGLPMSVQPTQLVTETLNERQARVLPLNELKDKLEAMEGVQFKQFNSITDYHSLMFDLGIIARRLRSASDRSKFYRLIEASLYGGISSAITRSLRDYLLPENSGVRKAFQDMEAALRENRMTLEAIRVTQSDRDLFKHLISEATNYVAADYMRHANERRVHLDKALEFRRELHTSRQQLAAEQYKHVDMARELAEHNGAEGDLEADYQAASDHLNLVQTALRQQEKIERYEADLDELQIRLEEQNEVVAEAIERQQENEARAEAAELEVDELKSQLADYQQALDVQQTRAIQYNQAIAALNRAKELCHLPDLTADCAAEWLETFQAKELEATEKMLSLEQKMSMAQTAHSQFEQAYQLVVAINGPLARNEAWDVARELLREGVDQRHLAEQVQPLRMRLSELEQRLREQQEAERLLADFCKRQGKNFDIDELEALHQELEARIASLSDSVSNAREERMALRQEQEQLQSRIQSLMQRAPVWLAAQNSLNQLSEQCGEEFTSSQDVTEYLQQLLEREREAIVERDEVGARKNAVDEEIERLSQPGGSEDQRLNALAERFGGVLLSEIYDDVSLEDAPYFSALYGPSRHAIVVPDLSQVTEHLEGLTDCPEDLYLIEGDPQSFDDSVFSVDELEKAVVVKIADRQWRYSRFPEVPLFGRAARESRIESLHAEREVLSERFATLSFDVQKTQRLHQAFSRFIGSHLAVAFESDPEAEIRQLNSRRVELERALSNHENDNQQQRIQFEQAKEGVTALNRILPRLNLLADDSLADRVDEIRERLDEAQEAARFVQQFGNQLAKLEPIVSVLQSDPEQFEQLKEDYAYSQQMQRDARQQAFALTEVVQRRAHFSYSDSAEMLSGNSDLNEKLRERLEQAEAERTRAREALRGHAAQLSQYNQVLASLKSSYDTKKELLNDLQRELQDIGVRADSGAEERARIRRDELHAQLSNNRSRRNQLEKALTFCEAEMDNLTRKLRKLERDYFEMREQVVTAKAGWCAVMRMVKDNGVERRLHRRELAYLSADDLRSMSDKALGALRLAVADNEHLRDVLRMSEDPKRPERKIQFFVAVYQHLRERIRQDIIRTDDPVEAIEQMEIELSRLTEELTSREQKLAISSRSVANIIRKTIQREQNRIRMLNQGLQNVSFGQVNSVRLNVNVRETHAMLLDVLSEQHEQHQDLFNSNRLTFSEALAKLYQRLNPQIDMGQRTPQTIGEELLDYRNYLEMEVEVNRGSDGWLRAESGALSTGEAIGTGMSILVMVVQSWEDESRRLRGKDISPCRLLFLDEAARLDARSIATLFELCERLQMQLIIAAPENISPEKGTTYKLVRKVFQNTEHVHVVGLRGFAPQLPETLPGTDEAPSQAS

ParC (from UniProt P0AFI2)
Kd: 500 nM
